Results reported in PMC10786891, “Massively parallel profiling of RNA-targeting CRISPR-Cas13d”.
Residue numbers refer to the chain shown, from its start. Names may count otherwise.

T1: EsCas13d, nuclease-dead (Eubacterium siraeum, UniProt B0MS50, R295A;H300A;R849A;H854A)
T1 sequence: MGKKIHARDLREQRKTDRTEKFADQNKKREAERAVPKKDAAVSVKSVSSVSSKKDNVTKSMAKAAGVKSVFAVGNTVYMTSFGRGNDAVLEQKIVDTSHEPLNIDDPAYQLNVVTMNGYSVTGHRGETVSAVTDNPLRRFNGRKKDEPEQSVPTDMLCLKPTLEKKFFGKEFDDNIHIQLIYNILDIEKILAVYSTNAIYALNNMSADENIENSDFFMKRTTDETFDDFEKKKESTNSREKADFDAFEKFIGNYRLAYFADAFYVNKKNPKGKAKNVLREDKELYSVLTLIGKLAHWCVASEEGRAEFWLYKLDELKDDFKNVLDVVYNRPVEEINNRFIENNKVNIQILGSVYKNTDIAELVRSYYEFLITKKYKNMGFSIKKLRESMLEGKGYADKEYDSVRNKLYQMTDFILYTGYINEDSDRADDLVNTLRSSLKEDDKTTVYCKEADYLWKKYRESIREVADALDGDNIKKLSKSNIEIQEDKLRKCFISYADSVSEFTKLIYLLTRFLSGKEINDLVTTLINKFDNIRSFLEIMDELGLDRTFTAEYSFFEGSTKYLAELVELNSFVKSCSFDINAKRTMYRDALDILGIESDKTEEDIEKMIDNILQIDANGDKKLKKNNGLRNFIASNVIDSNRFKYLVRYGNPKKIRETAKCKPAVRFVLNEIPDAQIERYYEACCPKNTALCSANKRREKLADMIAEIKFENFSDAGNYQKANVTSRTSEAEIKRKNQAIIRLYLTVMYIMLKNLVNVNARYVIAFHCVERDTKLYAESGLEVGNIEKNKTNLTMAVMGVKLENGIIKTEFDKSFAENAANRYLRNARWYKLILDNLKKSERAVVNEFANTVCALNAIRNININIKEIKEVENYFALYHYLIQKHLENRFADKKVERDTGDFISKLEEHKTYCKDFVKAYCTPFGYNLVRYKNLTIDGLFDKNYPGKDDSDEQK

B1: target 1 U3G,U11C (mixed)
RNA 1: CACCCGUGCAAAAAUGCAGGGGUCUAAAACUGAGCGGAUAACCUCUCUAUGG
RNA 2: GGGAAUGGAUCCACAUCUACGAAUUCGUACCAUAGAGAGGCUAUCCGCGCACCGAGAUCGGAAGAGCACACGU
B2: target 1 insG 3' of 14,insG 3' of 2 (mixed)
RNA 1: B1 RNA 1
RNA 2: GGGAAUGGAUCCACAUCUACGAAUUCGUACCAUAGAGAGGGUUAUCCGCUCGACCGAGAUCGGAAGAGCACACGU
B3: target 1 insU 3' of 12,insU 3' of 5 (mixed)
RNA 1: B1 RNA 1
RNA 2: B2 RNA 2 with G41U, C49U, U50C, C51U, G52C
B4: target 1 A20C,C22G (mixed)
RNA 1: B1 RNA 1
RNA 2: B1 RNA 2 with C30G, A32C, C41U, G49U
B5: target 1 insC 3' of 3 (mixed)
RNA 1: B1 RNA 1
RNA 2: GGGAAUGGAUCCACAUCUACGAAUUCGUACCAUAGAGAGGUUAUCCGCUCCACCGAGAUCGGAAGAGCACACGU
B6: target 1 G5U,U8C (mixed)
RNA 1: B1 RNA 1
RNA 2: B1 RNA 2 with C41U, U44C, G47U, G49U
B7: target 1 insG 3' of 21,insA 3' of 15 (mixed)
RNA 1: B1 RNA 1
RNA 2: GGGAAUGGAUCCACAUCUACGAAUUCGUACCGAUAGAGAAGGUUAUCCGCUCACCGAGAUCGGAAGAGCACACGU
B8: target 1 insG 3' of 16,insG 3' of 1 (mixed)
RNA 1: B1 RNA 1
RNA 2: B2 RNA 2 with A38G, G39A, G52A, A53G
B9: target 1 insG 3' of 16,insU 3' of 6 (mixed)
RNA 1: B1 RNA 1
RNA 2: B2 RNA 2 with A38G, G39A, G48U, C49G, U50C, C51U, G52C
B10: target 1 insG 3' of 16,insA 3' of 2 (mixed)
RNA 1: B1 RNA 1
RNA 2: B2 RNA 2 with A38G, G39A, G52A
B11: target 1 insA 3' of 17,insC 3' of 15 (mixed)
RNA 1: B1 RNA 1
RNA 2: B7 RNA 2 with G32A, A33U, U34A, A35G, G36A, A39C
B12: target 1 insG 3' of 16,insC 3' of 1 (mixed)
RNA 1: B1 RNA 1
RNA 2: B2 RNA 2 with A38G, G39A, G52A, A53C
B13: target 1 insC 3' of 8,insU 3' of 5 (mixed)
RNA 1: B1 RNA 1
RNA 2: B2 RNA 2 with G41U, U43A, A44U, U45C, C49U, U50C, C51U, G52C
B14: target 1 U11C,A16G (mixed)
RNA 1: B1 RNA 1
RNA 2: B1 RNA 2 with A36G, G49U
B15: target 1 insC 3' of 12,insA 3' of 6 (mixed)
RNA 1: B1 RNA 1
RNA 2: B2 RNA 2 with G41C, G48A, C49G, U50C, C51U, G52C
B16: target 1 U10C,C22A (mixed)
RNA 1: B1 RNA 1
RNA 2: B1 RNA 2 with C30A, C41U, U42C, G49U
B17: target 1 U11C,G12U (mixed)
RNA 1: B1 RNA 1
RNA 2: B1 RNA 2 with G40U, G49U
B18: target 1 insC 3' of 17,insC 3' of 9 (mixed)
RNA 1: B1 RNA 1
RNA 2: B7 RNA 2 with G32A, A33U, U34A, A35G, G36C, A40G, G42U, U44A, A45C
B19: target 1 insU 3' of 15,insC 3' of 12 (mixed)
RNA 1: B1 RNA 1
RNA 2: B7 RNA 2 with G32A, A33U, U34A, A35G, G36A, A37G, G38U, A40G, G42C
B20: target 1 insG 3' of 16,insC 3' of 11 (mixed)
RNA 1: B1 RNA 1
RNA 2: B7 RNA 2 with G32A, A33U, U34A, A35G, G36A, A37G, A40G, G42U, U43C
B21: target 1 insU 3' of 5,insC 3' of 3 (mixed)
RNA 1: B1 RNA 1
RNA 2: B2 RNA 2 with G41U, U43A, A44U, U45C, C47G, G48U, G52C
B22: target 1 C2A,U19A (mixed)
RNA 1: B1 RNA 1
RNA 2: B1 RNA 2 with U33A, C41U, G49U, C50A
B23: target 1 insC 3' of 10,insG 3' of 6 (mixed)
RNA 1: B1 RNA 1
RNA 2: B2 RNA 2 with G41U, U43C, C49G, U50C, C51U, G52C
B24: target 1 insU 3' of 12,insA 3' of 5 (mixed)
RNA 1: B1 RNA 1
RNA 2: B2 RNA 2 with G41U, C49A, U50C, C51U, G52C
B25: target 1 insG 3' of 21,insA 3' of 7 (mixed)
RNA 1: B1 RNA 1
RNA 2: B7 RNA 2 with A40G, G42U, U44A, A45U, U46C, C47A
B26: target 1 A14G,C21U (mixed)
RNA 1: B1 RNA 1
RNA 2: B1 RNA 2 with C31U, A38G, C41U, G49U
B27: target 1 del15,del17 (mixed)
RNA 1: B1 RNA 1
RNA 2: GGGAAUGGAUCCACAUCUACGAAUUCGUACCAUAAAGGUUAUCCGCUCACCGAGAUCGGAAGAGCACACGU
B28: target 1 G5A,U10G (mixed)
RNA 1: B1 RNA 1
RNA 2: B1 RNA 2 with C41U, U42G, G47A, G49U
B29: target 1 insU 3' of 22,insU 3' of 1 (mixed)
RNA 1: B1 RNA 1
RNA 2: GGGAAUGGAUCCACAUCUACGAAUUCGUACUCAUAGAGAGGUUAUCCGCUCAUCCGAGAUCGGAAGAGCACACGU

Biological target: T1, EsCas13d, nuclease-dead
Test: crRNA (strand 1, pre-loaded); Mg2+; 40 mM Tris-HCl pH 7.5, 150 mM NaCl, 6 mM MgCl2, 1 mM DTT, 0.1% Tween-20, 0.2 mg/ml BSA; 25 C; 10 min per concentration, then washed
Conditions: tags: His6-TwinStrep-SUMO cleaved; N-terminal SNAP kept (SNAP-Surface 488); label: 3' end held by stalled T7 RNA polymerase

| Binder | Kd [nM] |
| --- | --- |
| B1 | 9.9 ± 0.7 |
| B2 | 11.8 ± 0.7 |
| B3 | 11 ± 0.7 |
| B4 | 39.2 ± 2.3 |
| B5 | 12.6 ± 0.8 |
| B6 | 57 ± 12 |
| B7 | 37 ± 6 |
| B8 | 13 ± 0.8 |
| B9 | 21 ± 1 |
| B10 | 14.3 ± 0.9 |
| B11 | 12.5 ± 1.4 |
| B12 | 11.9 ± 1.1 |
| B13 | 16.1 ± 1.2 |
| B14 | 80 ± 8 |
| B15 | 11.1 ± 0.5 |
| B16 | 35.5 ± 2 |
| B17 | 10.2 ± 0.5 |
| B18 | 58 ± 13 |
| B19 | 35 ± 8 |
| B20 | 46 ± 11 |
| B21 | 38 ± 6 |
| B22 | 32.7 ± 3.3 |
| B23 | 18.8 ± 2.1 |
| B24 | 4.32 ± 0.35 |
| B25 | 46 ± 5 |
| B26 | 6.9 ± 0.4 |
| B27 | 90 ± 40 |
| B28 | 35 ± 4 |
| B29 | 37 ± 6 |
